Assay results from US20060153844A1, “Methods to trigger, maintain and manipulate immune responses by targeted administration of biological response modifiers into lymphoid organs” (priority 2004, published 2006).

System: PLA2-specific IgG2a and IgG1 antibodies
Test: anti-PLA2 IgG2a, IgG1 and IgE in sera after intralymphatic PLA2 plus TLR ligand
Format: in vivo, CBA/J mice
Experimental: The compounds were mixed within an hour before injection into the inguinal lymph node.
The sera were obtained over 13 weeks and analyzed by ELISA for anti-PLA2 IgG2a (FIG. 10A) and IgG1 (FIG. 10B). The ratio of IgG2a to IgG1 titers was calculated as a measure for Th1/Th2 immune response balance (FIG. 10C). […] Pre-immunization levels of anti-PLA2 antibodies were measured on sera from five mice taken the day before first injection.

B1: flagellin: flagellin, S. thyphimurium, TLR 5 ligand (protein, UniProt P06179 2-495, looked up)
Flagellin: AQVINTNSLSLLTQNNLNKSQSALGTAIERLSSGLRINSAKDDAAGQAIANRFTANIKGLTQASRNANDGISIAQTTEGALNEINNNLQRVRELAVQSANSTNSQSDLDSIQAEITQRLNEIDRVSGQTQFNGVKVLAQDNTLTIQVGANDGETIDIDLKQINSQTLGLDTLNVQQKYKVSDTAATVTGYADTTIALDNSTFKASATGLGGTDQKIDGDLKFDDTTGKYYAKVTVTGGTGKDGYYEVSVDKTNGEVTLAGGATSPLTGGLPATATEDVKNVQVANADLTEAKAALTAAGVTGTASVVKMSYTDNNGKTIDGGLAVKVGDDYYSATQNKDGSISINTTKYTADDGTSKTALNKLGGADGKTEVVSIGGKTYAASKAEGHNFKAQPDLAEAAATTTENPLQKIDAALAQVDTLRSDLGAVQNRFNSAITNLGNTVNNLTSARSRIEDSDYATEVSNMSRAQILQQAGTSVLAQANQVPQNVLSLLR
- kinetics of the antibody production (time of maximum titers) (i.ln. with 0.1 μg PLA2, sera over 13 weeks): peak titers were delayed
- anti-PLA2 antibody isotypes induced (IgG2a, IgG1) (i.ln. with 0.1 μg PLA2, three injections): induced both IgG2a and IgG1
